In patent US20090149389A1 (PURDUE RESEARCH FOUNDATION, published 2009):
Read-outs that look alike come from different tables or passages of the source.

What was measured:
Assay in all cases: cell-based or functional assay
ASK1 (h) = ASK1 (h) (human (h), UniProt Q99683 649-946, limits assumed)
Pim-1 (h) = Pim-1 (h) (human (h), UniProt P11309 1-313)
GSK3β (h) = GSK3β (h) (human (h), UniProt P49841 1-420)
PKB β (h) = PKB β (h) (human (h), UniProt P31751 1-481, limits assumed)
Tie2 (h) = Tie2 (h) (human (h), UniProt Q02763 771-1124, limits assumed)
Flt3 (h) = target: T1, Flt3 (h) (human (h), UniProt P36888 564-993, limits assumed)
T1 sequence (looked up): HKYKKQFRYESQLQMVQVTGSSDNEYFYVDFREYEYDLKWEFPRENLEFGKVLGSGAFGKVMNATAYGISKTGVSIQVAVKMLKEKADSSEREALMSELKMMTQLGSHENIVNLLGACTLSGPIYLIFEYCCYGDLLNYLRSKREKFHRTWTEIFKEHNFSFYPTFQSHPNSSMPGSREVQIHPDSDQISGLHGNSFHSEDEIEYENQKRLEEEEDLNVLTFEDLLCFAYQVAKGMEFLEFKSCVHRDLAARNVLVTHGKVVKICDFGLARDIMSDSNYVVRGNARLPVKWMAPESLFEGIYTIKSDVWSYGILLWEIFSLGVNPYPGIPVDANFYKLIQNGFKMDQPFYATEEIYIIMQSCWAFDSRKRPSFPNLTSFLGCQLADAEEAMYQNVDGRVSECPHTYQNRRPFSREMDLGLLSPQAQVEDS

Syk (h) = Syk (h) (human (h), UniProt P43405 1-635)
Src(1-530) (h) [1] = target: T2, Src(1-530) (h) (human (h), UniProt P12931 1-530)
ROCK-1 (h) = ROCK-1 (h) (human (h), UniProt Q13464 17-535, limits assumed)
TrkA (h) = TrkA (h) (human (h), UniProt P04629 441-796, limits assumed)
AMPK (r) = AMPK (r) (rat (r), UniProt Q09137 1-552, limits assumed)
CDKI/cyclinB (h) = CDKI/cyclinB (h) (human (h), UniProt P06493 1-297)
Abl (h) = Abl (h) (human (h), UniProt P00519 27-1130, limits assumed)
MAPKAP-K2 (h) = MAPKAP-K2 (h) (human (h), UniProt P49137 46-400, limits assumed)
MSK1 (h) = MSK1 (h) (human (h), UniProt O75582 1-802)
IRAK4 (h) = target: T3, IRAK4 (h) (human (h), UniProt Q9NWZ3 1-460, limits assumed)
T3 sequence (looked up): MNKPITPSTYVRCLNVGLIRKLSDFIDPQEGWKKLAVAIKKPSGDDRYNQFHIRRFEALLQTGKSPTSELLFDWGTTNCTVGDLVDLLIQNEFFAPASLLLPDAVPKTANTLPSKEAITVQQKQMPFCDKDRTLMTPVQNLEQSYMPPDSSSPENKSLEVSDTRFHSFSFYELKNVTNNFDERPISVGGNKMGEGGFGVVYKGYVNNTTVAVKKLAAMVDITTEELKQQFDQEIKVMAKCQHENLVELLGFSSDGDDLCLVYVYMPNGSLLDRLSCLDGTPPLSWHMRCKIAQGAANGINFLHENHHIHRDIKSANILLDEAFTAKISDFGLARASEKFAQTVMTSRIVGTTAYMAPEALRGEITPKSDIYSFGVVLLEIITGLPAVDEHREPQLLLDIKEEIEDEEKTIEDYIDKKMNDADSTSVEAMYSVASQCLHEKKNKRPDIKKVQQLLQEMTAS

MAPKI (h) = MAPKI (h) (human (h), UniProt P28482 1-360, limits assumed)
DYRK2 (h) = target: T4, DYRK2 (h) (human (h), UniProt Q92630 1-601, limits assumed)
T4 sequence (looked up): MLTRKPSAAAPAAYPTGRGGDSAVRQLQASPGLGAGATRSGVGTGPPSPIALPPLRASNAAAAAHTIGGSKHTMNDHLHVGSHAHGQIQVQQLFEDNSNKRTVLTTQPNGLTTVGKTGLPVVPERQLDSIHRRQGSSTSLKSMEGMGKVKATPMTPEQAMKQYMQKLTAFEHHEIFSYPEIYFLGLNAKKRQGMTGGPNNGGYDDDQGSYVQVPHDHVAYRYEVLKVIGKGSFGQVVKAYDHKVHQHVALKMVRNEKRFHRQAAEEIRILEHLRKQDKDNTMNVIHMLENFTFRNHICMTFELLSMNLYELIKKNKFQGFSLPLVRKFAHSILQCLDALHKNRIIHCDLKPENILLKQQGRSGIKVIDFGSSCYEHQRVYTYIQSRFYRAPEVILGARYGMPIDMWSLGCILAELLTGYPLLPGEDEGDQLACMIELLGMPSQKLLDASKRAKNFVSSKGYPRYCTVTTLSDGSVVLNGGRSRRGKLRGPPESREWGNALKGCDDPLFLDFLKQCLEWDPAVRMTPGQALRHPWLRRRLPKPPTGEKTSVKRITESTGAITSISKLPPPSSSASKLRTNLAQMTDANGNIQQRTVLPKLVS

MAPKAP-K3 (h) = MAPKAP-K3 (h) (human (h), UniProt Q16644 1-382, limits assumed)
BTK (h) = BTK (h) (human (h), UniProt Q06187 1-659)
CK2 (h) = CK2 (h) (human (h), UniProt P68400 1-391)
Src(1-530) (h) [2] = target: T2, Src(1-530) (h); remark: listed apart in the source

Sequence of BTK (h) (Q06187 whole entry): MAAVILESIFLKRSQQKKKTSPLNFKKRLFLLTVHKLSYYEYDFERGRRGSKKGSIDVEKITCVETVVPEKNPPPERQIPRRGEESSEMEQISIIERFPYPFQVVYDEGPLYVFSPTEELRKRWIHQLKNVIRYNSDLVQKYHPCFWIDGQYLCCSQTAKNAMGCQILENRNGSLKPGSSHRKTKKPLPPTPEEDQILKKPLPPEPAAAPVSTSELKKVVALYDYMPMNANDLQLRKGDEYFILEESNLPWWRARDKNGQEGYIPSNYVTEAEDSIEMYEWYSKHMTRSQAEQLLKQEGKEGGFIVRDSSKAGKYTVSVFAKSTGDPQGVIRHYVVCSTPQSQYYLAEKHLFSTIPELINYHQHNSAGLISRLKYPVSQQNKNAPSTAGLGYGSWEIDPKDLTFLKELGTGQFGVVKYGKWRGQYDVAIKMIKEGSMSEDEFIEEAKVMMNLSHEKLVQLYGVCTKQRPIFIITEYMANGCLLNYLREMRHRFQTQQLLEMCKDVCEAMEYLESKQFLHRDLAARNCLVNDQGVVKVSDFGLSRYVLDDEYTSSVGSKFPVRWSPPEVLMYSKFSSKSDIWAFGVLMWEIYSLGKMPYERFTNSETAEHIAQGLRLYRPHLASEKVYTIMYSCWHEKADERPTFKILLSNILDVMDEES
Sequence of GSK3β (h) (P49841 whole entry): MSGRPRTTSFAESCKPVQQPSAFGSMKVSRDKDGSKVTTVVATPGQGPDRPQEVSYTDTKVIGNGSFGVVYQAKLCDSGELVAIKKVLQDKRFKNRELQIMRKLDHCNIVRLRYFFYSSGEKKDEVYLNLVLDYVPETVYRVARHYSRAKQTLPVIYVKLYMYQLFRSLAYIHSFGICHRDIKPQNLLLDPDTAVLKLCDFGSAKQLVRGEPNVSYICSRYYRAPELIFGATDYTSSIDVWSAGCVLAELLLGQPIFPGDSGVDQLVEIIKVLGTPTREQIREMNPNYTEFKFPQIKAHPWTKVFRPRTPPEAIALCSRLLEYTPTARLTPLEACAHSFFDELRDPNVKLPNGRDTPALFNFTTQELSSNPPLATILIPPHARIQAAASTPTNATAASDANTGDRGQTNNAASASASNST
Sequence of MSK1 (h) (O75582 whole entry): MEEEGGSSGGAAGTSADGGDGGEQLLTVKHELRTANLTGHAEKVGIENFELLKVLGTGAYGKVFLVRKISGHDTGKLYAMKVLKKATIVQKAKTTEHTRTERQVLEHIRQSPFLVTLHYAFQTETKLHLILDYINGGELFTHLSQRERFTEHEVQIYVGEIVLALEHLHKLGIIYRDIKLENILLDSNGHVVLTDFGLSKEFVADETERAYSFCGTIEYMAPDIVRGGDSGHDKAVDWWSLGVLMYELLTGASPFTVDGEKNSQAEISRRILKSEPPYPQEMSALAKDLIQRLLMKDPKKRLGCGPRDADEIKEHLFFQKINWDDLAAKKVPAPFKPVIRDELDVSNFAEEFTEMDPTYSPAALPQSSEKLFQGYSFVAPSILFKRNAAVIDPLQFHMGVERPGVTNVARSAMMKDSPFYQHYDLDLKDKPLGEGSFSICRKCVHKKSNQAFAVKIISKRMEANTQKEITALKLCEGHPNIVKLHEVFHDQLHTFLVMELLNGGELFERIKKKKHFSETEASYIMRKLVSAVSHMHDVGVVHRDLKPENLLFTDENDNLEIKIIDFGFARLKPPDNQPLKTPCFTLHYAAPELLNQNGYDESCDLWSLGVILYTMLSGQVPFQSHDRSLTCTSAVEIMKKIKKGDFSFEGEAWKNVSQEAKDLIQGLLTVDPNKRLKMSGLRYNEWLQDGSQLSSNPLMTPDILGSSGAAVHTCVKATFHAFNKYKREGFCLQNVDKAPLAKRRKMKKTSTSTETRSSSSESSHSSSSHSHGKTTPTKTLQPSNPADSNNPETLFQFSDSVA
Sequence of AMPK (r) (Q09137 whole entry): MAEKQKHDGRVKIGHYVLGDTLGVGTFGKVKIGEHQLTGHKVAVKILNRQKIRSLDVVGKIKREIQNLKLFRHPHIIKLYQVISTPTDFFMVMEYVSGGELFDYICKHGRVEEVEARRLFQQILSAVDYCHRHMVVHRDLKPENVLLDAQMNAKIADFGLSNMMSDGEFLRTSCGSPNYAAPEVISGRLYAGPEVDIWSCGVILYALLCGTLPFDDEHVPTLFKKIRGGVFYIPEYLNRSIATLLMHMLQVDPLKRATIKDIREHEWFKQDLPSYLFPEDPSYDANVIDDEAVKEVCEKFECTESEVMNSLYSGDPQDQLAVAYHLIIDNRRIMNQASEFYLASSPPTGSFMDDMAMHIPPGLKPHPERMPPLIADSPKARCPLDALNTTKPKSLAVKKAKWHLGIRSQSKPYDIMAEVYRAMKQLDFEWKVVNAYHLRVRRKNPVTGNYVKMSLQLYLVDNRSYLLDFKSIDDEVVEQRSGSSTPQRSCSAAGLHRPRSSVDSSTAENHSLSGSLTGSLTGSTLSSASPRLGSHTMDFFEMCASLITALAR
Sequence of Pim-1 (h) (P11309 whole entry): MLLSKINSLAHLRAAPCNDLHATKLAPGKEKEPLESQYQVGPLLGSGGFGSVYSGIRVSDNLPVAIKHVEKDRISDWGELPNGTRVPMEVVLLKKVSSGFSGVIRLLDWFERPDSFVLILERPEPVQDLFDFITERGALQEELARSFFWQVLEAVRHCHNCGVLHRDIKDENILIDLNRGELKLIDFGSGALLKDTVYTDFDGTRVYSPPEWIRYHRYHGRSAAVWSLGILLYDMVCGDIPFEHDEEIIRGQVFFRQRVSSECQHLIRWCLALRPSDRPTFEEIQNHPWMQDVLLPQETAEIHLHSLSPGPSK
Sequence of CK2 (h) (P68400 whole entry): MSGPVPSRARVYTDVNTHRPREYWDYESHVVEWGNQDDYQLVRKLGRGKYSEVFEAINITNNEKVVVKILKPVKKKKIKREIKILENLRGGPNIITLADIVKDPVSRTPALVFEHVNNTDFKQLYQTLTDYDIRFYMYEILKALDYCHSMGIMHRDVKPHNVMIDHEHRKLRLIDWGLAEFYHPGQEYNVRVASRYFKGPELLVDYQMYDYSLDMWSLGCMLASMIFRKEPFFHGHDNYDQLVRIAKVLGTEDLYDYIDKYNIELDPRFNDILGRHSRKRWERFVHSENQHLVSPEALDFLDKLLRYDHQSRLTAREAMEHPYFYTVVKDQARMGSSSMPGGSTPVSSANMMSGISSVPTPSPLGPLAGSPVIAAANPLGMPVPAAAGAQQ
Sequence of ASK1 (h) (Q99683 649-946 limits assumed): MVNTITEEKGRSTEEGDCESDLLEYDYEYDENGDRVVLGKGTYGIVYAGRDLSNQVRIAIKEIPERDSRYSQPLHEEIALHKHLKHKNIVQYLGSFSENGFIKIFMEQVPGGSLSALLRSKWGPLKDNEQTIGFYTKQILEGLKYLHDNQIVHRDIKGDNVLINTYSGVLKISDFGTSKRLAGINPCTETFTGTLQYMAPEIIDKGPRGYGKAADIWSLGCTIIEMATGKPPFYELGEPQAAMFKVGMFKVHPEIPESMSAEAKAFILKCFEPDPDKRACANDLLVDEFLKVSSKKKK
Sequence of Tie2 (h) (Q02763 771-1124 limits assumed): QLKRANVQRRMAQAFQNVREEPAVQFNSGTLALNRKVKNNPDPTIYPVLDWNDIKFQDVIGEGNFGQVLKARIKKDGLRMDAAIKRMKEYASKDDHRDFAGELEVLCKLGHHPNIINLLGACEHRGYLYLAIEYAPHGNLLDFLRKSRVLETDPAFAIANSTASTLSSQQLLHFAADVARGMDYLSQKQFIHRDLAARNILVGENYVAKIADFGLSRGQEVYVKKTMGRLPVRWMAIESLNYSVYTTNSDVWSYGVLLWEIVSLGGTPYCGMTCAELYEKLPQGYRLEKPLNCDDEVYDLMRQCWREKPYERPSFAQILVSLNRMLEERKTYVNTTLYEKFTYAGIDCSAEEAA
Sequence of MAPKAP-K2 (h) (P49137 46-400 limits assumed): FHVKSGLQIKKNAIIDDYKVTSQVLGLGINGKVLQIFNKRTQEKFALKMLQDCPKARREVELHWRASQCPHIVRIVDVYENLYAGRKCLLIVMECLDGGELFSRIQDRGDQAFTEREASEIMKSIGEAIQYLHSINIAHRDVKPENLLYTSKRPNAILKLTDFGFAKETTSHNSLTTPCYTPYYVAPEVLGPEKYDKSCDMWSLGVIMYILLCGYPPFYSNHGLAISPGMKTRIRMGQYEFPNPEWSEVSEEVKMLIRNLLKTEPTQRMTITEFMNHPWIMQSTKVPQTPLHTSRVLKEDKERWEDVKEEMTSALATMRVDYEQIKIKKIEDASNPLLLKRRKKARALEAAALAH
Sequence of MAPKI (h) (P28482 whole entry): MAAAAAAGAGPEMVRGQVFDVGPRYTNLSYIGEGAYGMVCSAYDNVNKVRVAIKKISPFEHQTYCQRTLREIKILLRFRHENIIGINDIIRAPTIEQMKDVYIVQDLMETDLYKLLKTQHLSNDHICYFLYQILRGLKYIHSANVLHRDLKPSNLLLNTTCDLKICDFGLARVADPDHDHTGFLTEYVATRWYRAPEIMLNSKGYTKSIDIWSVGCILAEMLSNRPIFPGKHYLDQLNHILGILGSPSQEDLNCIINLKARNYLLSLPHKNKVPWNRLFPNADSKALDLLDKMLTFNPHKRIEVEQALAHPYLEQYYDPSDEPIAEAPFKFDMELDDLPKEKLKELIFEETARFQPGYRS
Sequence of CDKI/cyclinB (h) (P06493 whole entry): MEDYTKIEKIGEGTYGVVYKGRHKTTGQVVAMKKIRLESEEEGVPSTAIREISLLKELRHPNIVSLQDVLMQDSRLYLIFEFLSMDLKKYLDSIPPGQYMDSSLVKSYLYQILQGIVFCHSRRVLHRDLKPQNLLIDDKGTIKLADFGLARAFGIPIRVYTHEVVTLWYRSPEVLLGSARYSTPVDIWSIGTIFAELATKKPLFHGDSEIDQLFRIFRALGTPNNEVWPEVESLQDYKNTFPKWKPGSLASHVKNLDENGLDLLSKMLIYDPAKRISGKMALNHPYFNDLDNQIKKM

## FAKLAARLYRKALARQLGVAA
ASK1 (h)
  Profile-1 @ = 100 µm (kinase profiler assay): 53
Pim-1 (h)
  Profile-1 @ = 100 µm (kinase profiler assay): 1
GSK3β (h)
  Profile-1 @ = 100 µm (kinase profiler assay): 188
PKB β (h)
  Profile-1 @ = 100 µm (kinase profiler assay): 16
Tie2 (h)
  Profile-1 @ = 100 µm (kinase profiler assay): 0
Flt3 (h)
  Profile-1 @ = 100 µm (kinase profiler assay): 14
Syk (h)
  Profile-1 @ = 100 µm (kinase profiler assay): 38
Src(1-530) (h) [1]
  Profile-1 @ = 100 µm (kinase profiler assay): 5
ROCK-1 (h)
  Profile-1 @ = 100 µm (kinase profiler assay): 25
TrkA (h)
  Profile-1 @ = 100 µm (kinase profiler assay): 17
AMPK (r)
  Profile-1 @ = 100 µm (kinase profiler assay): 101
CDKI/cyclinB (h)
  Profile-1 @ = 100 µm (kinase profiler assay): 36
Abl (h)
  Profile-1 @ = 100 µm (kinase profiler assay): 41
MAPKAP-K2 (h)
  Profile-1 @ = 100 µm (kinase profiler assay): 5
MSK1 (h)
  Profile-1 @ = 100 µm (kinase profiler assay): 11
IRAK4 (h)
  Profile-1 @ = 100 µm (kinase profiler assay): 13
MAPKI (h)
  Profile-1 @ = 100 µm (kinase profiler assay): 104
DYRK2 (h)
  Profile-1 @ = 100 µm (kinase profiler assay): -11
MAPKAP-K3 (h)
  Profile-1 @ = 100 µm (kinase profiler assay): 10
BTK (h)
  Profile-1 @ = 100 µm (kinase profiler assay): 19
CK2 (h)
  Profile-1 @ = 100 µm (kinase profiler assay): 80

## KAFAKLAARLYRKALARQLGVAA
Src(1-530) (h) [2]
  Profile-1 @ = 100 µm (kinase profiler assay): 3
